Measured values published in patent publication US20170327598A1 (published 2017).
Read-outs that look alike come from different tables or passages of the source.

How the values were obtained:
Test in all cases: sandwich ELISA, STAT protein coated at 0.5 µg/mL
[1] = molecular target: T1, STAT 1 protein (UniProt P42224 1-750, limits assumed)
T1 sequence (looked up): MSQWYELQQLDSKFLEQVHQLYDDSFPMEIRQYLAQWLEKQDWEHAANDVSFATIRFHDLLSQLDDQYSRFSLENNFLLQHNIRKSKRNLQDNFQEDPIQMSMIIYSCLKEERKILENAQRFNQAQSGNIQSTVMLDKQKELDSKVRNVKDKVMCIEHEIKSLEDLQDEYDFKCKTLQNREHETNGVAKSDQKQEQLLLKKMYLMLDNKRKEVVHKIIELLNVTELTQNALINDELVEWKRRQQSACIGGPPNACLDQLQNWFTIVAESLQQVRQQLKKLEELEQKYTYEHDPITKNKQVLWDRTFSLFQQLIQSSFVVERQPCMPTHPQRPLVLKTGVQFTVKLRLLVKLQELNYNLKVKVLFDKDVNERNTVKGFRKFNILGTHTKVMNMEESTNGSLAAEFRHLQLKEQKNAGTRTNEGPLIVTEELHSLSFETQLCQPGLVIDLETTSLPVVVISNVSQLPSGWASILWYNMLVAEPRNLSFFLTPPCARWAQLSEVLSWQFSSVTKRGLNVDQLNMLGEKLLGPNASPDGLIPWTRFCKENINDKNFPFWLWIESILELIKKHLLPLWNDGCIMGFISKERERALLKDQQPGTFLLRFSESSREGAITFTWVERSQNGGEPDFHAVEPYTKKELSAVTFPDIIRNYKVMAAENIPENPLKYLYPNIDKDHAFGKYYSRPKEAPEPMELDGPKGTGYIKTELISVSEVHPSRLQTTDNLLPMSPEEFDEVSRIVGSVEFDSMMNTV

[2] = molecular target: T2, STAT 2 protein (UniProt P52630 1-851, limits assumed)
[3] = molecular target: T3, STAT 4 protein (UniProt Q14765 1-748, limits assumed)
T3 sequence (looked up): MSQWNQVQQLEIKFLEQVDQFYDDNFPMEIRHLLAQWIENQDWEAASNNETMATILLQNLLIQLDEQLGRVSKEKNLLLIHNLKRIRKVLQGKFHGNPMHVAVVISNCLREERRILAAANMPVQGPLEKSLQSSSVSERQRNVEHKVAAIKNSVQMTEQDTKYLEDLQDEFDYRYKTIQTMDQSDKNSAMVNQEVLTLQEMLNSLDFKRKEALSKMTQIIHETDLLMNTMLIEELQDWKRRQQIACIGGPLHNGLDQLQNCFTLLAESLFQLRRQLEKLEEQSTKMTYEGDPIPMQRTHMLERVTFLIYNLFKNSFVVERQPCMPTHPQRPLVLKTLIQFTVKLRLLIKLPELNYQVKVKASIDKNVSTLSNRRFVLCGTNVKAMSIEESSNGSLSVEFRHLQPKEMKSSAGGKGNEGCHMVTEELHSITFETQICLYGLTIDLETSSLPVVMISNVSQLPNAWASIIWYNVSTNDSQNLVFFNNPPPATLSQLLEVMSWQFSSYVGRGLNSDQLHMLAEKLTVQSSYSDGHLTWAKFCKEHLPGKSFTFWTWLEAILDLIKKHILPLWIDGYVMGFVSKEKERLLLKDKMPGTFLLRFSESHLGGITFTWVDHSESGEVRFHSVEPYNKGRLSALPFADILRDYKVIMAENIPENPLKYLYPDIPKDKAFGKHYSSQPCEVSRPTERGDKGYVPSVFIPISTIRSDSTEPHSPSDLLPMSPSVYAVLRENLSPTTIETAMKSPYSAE

[4] = molecular target: T4, STAT 5a protein (UniProt P42229 1-794, limits assumed)
T4 sequence (looked up): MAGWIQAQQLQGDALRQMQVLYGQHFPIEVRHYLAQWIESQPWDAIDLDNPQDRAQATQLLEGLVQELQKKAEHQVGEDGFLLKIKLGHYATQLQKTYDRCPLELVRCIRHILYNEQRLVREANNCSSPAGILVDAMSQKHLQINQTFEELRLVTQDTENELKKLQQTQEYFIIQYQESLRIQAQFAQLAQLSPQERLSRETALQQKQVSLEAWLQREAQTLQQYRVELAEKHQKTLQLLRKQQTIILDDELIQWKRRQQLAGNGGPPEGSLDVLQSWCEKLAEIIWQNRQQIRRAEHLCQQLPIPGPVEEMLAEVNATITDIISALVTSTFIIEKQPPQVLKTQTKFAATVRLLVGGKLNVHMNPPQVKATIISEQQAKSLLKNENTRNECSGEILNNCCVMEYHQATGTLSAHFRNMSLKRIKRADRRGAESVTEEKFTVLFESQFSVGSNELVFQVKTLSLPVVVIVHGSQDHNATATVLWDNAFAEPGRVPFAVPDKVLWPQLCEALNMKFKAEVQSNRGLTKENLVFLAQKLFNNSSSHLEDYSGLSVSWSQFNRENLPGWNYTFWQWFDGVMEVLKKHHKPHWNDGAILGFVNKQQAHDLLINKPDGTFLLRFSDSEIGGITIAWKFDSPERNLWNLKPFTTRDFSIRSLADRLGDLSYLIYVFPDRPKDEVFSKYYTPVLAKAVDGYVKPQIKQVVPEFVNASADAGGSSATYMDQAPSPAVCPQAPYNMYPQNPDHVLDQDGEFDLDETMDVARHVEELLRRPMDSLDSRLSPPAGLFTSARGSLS

[5] = molecular target: T1, STAT 1 protein; remark: listed apart in the source
[6] = molecular target: T2, STAT 2 protein; remark: listed apart in the source
[7] = molecular target: STAT 3 protein (UniProt P40763 1-770, limits assumed)
[8] = molecular target: T3, STAT 4 protein; remark: listed apart in the source
[9] = molecular target: T4, STAT 5a protein; remark: listed apart in the source

T2 sequence (P52630 whole entry): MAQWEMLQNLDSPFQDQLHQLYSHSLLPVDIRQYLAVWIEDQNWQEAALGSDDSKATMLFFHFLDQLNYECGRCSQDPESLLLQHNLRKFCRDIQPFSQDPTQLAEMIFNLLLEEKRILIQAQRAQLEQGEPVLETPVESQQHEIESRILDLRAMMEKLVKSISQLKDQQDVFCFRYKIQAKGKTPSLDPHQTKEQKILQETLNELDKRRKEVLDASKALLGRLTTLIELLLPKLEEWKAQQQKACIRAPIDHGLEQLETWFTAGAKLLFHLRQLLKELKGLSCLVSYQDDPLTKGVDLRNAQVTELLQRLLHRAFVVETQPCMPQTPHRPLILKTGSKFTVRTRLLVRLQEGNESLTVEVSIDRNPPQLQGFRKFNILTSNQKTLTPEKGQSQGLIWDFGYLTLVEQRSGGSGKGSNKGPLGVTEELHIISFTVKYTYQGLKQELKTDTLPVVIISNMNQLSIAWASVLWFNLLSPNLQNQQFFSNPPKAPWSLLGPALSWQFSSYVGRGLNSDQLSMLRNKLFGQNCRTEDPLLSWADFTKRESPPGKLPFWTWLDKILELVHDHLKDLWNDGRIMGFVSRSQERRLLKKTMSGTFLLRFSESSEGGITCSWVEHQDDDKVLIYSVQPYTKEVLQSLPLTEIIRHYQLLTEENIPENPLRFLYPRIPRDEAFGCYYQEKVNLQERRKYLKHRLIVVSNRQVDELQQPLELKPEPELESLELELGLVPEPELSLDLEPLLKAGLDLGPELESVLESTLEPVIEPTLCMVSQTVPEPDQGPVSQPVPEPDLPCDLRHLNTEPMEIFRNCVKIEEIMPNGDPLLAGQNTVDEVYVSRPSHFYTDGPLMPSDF

Mean OD450 [1]: 1.94 OD450
Mean OD450 [2]: 1.85 OD450
Mean OD450 [3]: 3.14 OD450
Mean OD450 [4]: 2.73 OD450
Mean OD450 [5]: 0.159 OD450
Mean OD450 [6]: 0.186 OD450
Mean OD450 [7]: 0.431 OD450
Mean OD450 [8]: 0.833 OD450
Mean OD450 [9]: 0.821 OD450
B1: anti-STAT3 VHH13 (SEQ ID NO:3) sdAb (VHH)
VHH: HVQLVESGGGSVQAGGSLRLSCAASGANGGRSCMGWFRQVPGKEREGVSGISTGGLITYYADSVKGRFTISQDNTKNTLYLQMNSLKPEDTAMYYCATSRFDCYRGSWFNRYMYNSWGQGTQVTVSS
